Source: article PMC10786121, “Rab29-dependent asymmetrical activation of leucine-rich repeat kinase 2” (Science (New York, N.Y.), 2023)

B1: Rab29EM (Rab29 Q67L, T71A, S72A) (natural protein)
chain: MGSRDHLFKVLVVGDAAVGKTSLVQRYSQDSFSKHYKSTVGVDFALKVLQWSDYEIVRLQLWDIAGLERFAAMTRLYYRDASACVIMFDVTNATTFSNSQRWKQDLDSKLTLPNGEPVPCLLLANKCDLSPWAVSRDQIDRFSKENGFTGWTETSVKENKNINEAMRVLIEKMMRNS
notes: Rab29, a Rab GTPase encoded in the PARK16 locus, with three point mutations; constructs are in the supplementary Materials and Methods; also called Rab29^peri

Tests used:
[1] = target: leucine-rich repeat kinase 2 (LRRK2) (UniProt Q5S007); assay: cryo-EM 2D classification; Rab29 T71A/S72A–LRRK2 complex; 2D classification performed with cross-correlation (fig. S9E); details: remark: other sources report otherwise
[2] = target: leucine-rich repeat kinase 2 (LRRK2) (UniProt Q5S007); assay: cryo-EM structure; complex reconstituted by mixing LRRK2, Rab29EM, GTP analog (GppNHp), ATP and Mg2+; three oligomeric assemblies (monomer, dimer, tetramer); C2 symmetry imposed for dimer and tetramer; details: remark: other sources report otherwise
[3] = target: T1, leucine-rich repeat kinase 2 (LRRK2) (UniProt Q5S007 1-2527); assay: as above; details: both partners purified
T1 construct: leucine-rich repeat kinase 2 (LRRK2), wild type; domains ARM, ANK, LRR, ROC, COR, KIN, WD40; Near full-length LRRK2^peri could be modelled in the tetramer; Seen as monomer, dimer and tetramer in complex with Rab29; Also stands for the WT LRRK2 transfected into HEK293 cells in the functional rows; also called WT LRRK2; LRRK2^peri
T1 sequence (Q5S007 whole entry): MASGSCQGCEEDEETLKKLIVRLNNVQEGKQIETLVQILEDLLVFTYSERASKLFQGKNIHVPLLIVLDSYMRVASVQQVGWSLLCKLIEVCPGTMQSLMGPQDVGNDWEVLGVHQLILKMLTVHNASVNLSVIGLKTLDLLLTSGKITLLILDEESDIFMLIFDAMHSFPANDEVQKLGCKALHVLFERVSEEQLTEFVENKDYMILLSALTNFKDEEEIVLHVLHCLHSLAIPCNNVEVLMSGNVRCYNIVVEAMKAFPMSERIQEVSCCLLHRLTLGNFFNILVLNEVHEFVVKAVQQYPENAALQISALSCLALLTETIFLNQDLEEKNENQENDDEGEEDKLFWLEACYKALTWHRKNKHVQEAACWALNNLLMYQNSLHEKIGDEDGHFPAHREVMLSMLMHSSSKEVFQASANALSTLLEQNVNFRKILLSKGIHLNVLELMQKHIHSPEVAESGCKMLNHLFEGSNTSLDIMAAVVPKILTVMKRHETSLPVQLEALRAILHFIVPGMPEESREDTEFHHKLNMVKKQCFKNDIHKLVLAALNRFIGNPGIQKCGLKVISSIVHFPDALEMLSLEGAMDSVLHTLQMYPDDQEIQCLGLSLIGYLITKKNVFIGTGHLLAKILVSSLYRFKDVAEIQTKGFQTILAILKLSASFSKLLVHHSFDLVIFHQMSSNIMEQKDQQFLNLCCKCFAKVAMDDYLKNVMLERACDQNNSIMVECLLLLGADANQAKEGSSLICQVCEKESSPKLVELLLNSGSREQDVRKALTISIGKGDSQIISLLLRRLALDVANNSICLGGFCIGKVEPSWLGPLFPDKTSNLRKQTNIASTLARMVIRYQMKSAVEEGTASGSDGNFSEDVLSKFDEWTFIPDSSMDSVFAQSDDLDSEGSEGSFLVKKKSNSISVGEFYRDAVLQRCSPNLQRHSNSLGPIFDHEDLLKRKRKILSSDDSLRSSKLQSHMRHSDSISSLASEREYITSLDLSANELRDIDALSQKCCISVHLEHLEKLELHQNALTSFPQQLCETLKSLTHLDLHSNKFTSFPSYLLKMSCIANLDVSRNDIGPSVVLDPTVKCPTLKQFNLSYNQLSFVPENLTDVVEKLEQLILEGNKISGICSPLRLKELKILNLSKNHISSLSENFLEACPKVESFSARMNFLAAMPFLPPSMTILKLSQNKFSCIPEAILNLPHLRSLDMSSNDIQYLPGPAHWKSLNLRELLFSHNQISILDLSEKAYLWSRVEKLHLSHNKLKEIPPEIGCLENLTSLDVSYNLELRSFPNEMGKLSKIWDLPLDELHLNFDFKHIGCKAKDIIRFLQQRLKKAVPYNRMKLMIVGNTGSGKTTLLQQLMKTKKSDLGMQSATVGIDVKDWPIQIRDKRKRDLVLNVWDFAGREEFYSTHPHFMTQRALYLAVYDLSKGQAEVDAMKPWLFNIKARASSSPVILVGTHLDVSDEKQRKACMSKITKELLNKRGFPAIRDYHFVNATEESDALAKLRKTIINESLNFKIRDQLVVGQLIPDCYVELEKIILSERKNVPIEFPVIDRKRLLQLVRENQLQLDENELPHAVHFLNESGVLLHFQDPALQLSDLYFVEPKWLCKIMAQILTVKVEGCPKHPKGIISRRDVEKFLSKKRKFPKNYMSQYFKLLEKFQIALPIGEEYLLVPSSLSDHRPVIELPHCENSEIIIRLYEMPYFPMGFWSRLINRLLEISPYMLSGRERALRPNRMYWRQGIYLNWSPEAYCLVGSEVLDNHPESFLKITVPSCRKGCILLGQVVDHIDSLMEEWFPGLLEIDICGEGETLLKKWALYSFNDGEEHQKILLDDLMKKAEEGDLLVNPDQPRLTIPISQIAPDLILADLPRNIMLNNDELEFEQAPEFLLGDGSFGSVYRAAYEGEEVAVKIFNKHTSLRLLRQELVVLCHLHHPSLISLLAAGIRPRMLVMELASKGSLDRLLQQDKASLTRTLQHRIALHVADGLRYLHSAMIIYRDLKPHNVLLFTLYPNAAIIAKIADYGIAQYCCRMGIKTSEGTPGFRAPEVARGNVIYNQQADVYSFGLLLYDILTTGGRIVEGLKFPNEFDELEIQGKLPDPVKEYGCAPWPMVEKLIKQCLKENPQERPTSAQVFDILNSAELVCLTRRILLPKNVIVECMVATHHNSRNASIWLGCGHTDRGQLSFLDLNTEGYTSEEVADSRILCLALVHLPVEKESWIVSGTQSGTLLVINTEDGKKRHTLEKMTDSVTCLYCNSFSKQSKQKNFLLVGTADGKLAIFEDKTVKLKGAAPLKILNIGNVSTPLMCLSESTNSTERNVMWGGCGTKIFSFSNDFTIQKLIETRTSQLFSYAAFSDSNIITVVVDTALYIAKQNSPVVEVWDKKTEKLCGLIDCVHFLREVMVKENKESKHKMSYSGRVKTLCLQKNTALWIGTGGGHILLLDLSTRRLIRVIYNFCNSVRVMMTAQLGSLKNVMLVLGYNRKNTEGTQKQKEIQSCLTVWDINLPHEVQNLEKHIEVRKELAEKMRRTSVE

Row | Molecule | stoichiometry N [1] | stoichiometry N [2] | stoichiometry N [3]
1 | leucine-rich repeat kinase 2 (LRRK2), Q5S007 1-2527 | 4 | 4 | 
2 | B1 |  |  | 1
